Results from patent US20240117030A1 (Pfizer, published 2024).
Substitutions are numbered along the chain they refer to.

T1: recombinant human IL-33 (human, UniProt O95760 112-270, limits assumed)
T1 sequence (looked up): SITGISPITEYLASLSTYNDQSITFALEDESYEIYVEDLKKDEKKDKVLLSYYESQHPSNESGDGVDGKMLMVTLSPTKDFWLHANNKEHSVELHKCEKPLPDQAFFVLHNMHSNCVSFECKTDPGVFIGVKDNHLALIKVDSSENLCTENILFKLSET

B1: IL413TSLP-0008 (trispecific antibody, human IgG1, kappa, lambda)
heavy: EVQLVESGGGLVQPGGSLRLSCAASGFTFSSYAMSWVRQAPGKGLEWVASISSGDTTYYPDSVKGRFTISRDNAKNSLYLQMNSLRAEDTAVYYCARNEGYYFGLTLWGQGTLVTVSSASTKGPSVFPKAPSSKSTSGGTAALGCLVKDYFPEPVTVSWNSGALTSGVHTFPAVLQSSGLYSLSSSVTVPSSSLGTQTYICNVNHKPSNTKVDKKVEPKSCDKTHTCPPCPAPEAAGAPSVFLFPPKPKDTLMISRTPEVTCVVVDVSHEDPEVKFNWYVDGVEVHNAKTKPREEQYNSTYRVVSVLTVLHQDWLNGKEYKCKVSNKALPAPIEKTISKAKGQPREPQVCTLPPSREEMTKNQVSLWCLVKGFYPSDIAVEWESNGQPENNYKTTPPVLDSDGSFFLYSKLTVDKSRWQQGNVFSCSVMHEALHNHYTQKSLSLSPGK
chain 1: SYVLTQPPSVSVAPGQTARITCGGNNLGSKSVHWYQQKPGQAPVLVVYDDSDRPSWIPERFSGSNSGNTATLTISRGEAGDEADYYCQVWDSSSDHVVFGGGTKLTVLASTKGPSVFPLAPSSKSTSGGTAALGCLVKDYFPEPVTVSWNSGALTSGVHTFPAVLQSSGLYSLSSVVTVPSSSLGTQTYICNVNHKPSNTKVDKKVEPKSCGGGGSEVTLRESGPALVKPTQTLTLTCTFSGFSLSNFGEGLSWIRQPPGKGLEWLAHIYWDDDKRYNPSLKSRLTISKDTSRNQVVLTMTNMDPVDTATYYCARRETVFYWYFDVWGQGTTVTVSSASTKGPSVFPEAPSSKSTSGGTAALGCLVKDYFPEPVTVSWNSGALTSGVHTFPAVLQSSGLYSLGSVVTVPSSSLGTQTYICNVNHKPSNTKVDKKVEPKSCDKTHTCPPCPAPEAAGAPSVFLFPPKPKDTLMISRTPEVTCVVVDVSHEDPEVKFNWYVDGVEVHNAKTKPREEQYNSTYRVVSVLTVLHQDWLNGKEYKCKVSNKALPAPIEKTISKAKGQPREPQVYTLPPCREEMTKNQVSLSCAVKGFYPSDIAVEWESNGQPENNYKTTPPVLDSDGSFFLVSKLTVDKSRWQQGNVFSCSVMHEALHNHYTQKSLSLSPGK
light 1: DIQMTQSPSSLSASVGDRVTITCKASESVDHFGWSLVHWYQQKPGKAPKLLIYRASNLESGVPSRFSGSGSGTDFTLTISSLQPEDFATYYCQQSNEDPWTFGGGTKVEIKRTVAAPSVFIFPPSDEQLKSGTASVSCLLNNFYPREAKVQWKVDNALQSGNSQESVTEQDSKDSTYSLDSTLTLSKADYEKHKVYACEVTHQGLSSPVTKSFNRGEC
light 2: B1 light 1 with E27Q, H31E, F32D, W34D, L36Y, V37M, H38N, R54A, W100P, D180K
chain 2: QMQLVESGGGVVQPGRSLRLSCAASGFTFRTYGMHWVRQAPGKGLEWVAVIWYDGSNKHYADSVKGRFTITRDNSKNTLNLQMNSLRAEDTAVYYCARAPQWELVHEAFDIWGQGTMVTVSSGQPKAAPSVTLFPPSSEELQANKATLVCLISDFYPGAVTVAWKADSSPVKAGVETTTPSKQSNNKYAASSYLSLTPEQWKSHRSYSCQVTHEGSTVEKTVAPTECS
B2: IL413TSLP-0002 (trispecific antibody, human IgG1, kappa, lambda)
heavy: B1 heavy
chain 1: QMQLVESGGGVVQPGRSLRLSCAASGFTFRTYGMHWVRQAPGKGLEWVAVIWYDGSNKHYADSVKGRFTITRDNSKNTLNLQMNSLRAEDTAVYYCARAPQWELVHEAFDIWGQGTMVTVSSGQPKAAPSVTLFPPSSEELQANKATLVCLISDFYPGAVTVAWKADSSPVKAGVETTTPSKQSNNKYAASSYLSLTPEQWKSHRSYSCQVTHEGSTVEKTVAPTECSGGGGSEVTLRESGPALVKPTQTLTLTCTFSGFSLSNFGEGLSWIRQPPGKGLEWLAHIYWDDDKRYNPSLKSRLTISKDTSRNQVVLTMTNMDPVDTATYYCARRETVFYWYFDVWGQGTTVTVSSASTKGPSVFPEAPSSKSTSGGTAALGCLVKDYFPEPVTVSWNSGALTSGVHTFPAVLQSSGLYSLGSVVTVPSSSLGTQTYICNVNHKPSNTKVDKKVEPKSCDKTHTCPPCPAPEAAGAPSVFLFPPKPKDTLMISRTPEVTCVVVDVSHEDPEVKFNWYVDGVEVHNAKTKPREEQYNSTYRVVSVLTVLHQDWLNGKEYKCKVSNKALPAPIEKTISKAKGQPREPQVYTLPPCREEMTKNQVSLSCAVKGFYPSDIAVEWESNGQPENNYKTTPPVLDSDGSFFLVSKLTVDKSRWQQGNVFSCSVMHEALHNHYTQKSLSLSPGK
light 1: B1 light 1
light 2: B1 light 1 with E27Q, H31E, F32D, W34D, L36Y, V37M, H38N, R54A, W100P, D180K
chain 2: SYVLTQPPSVSVAPGQTARITCGGNNLGSKSVHWYQQKPGQAPVLVVYDDSDRPSWIPERFSGSNSGNTATLTISRGEAGDEADYYCQVWDSSSDHVVFGGGTKLTVLASTKGPSVFPLAPSSKSTSGGTAALGCLVKDYFPEPVTVSWNSGALTSGVHTFPAVLQSSGLYSLSSVVTVPSSSLGTQTYICNVNHKPSNTKVDKKVEPKSC
B3: IL413TSLP-0001 (trispecific antibody, human IgG1, kappa, lambda)
heavy: EVTLRESGPALVKPTQTLTLTCTFSGFSLSNFGEGLSWIRQPPGKGLEWLAHIYWDDDKRYNPSLKSRLTISKDTSRNQVVLTMTNMDPVDTATYYCARRETVFYWYFDVWGQGTTVTVSSASTKGPSVFPEAPSSKSTSGGTAALGCLVKDYFPEPVTVSWNSGALTSGVHTFPAVLQSSGLYSLGSVVTVPSSSLGTQTYICNVNHKPSNTKVDKKVEPKSCDKTHTCPPCPAPEAAGAPSVFLFPPKPKDTLMISRTPEVTCVVVDVSHEDPEVKFNWYVDGVEVHNAKTKPREEQYNSTYRVVSVLTVLHQDWLNGKEYKCKVSNKALPAPIEKTISKAKGQPREPQVYTLPPCREEMTKNQVSLSCAVKGFYPSDIAVEWESNGQPENNYKTTPPVLDSDGSFFLVSKLTVDKSRWQQGNVFSCSVMHEALHNHYTQKSLSLSPGK
chain 1: QMQLVESGGGVVQPGRSLRLSCAASGFTFRTYGMHWVRQAPGKGLEWVAVIWYDGSNKHYADSVKGRFTITRDNSKNTLNLQMNSLRAEDTAVYYCARAPQWELVHEAFDIWGQGTMVTVSSGQPKAAPSVTLFPPSSEELQANKATLVCLISDFYPGAVTVAWKADSSPVKAGVETTTPSKQSNNKYAASSYLSLTPEQWKSHRSYSCQVTHEGSTVEKTVAPTECSGGGGSEVQLVESGGGLVQPGGSLRLSCAASGFTFSSYAMSWVRQAPGKGLEWVASISSGDTTYYPDSVKGRFTISRDNAKNSLYLQMNSLRAEDTAVYYCARNEGYYFGLTLWGQGTLVTVSSASTKGPSVFPKAPSSKSTSGGTAALGCLVKDYFPEPVTVSWNSGALTSGVHTFPAVLQSSGLYSLSSSVTVPSSSLGTQTYICNVNHKPSNTKVDKKVEPKSCDKTHTCPPCPAPEAAGAPSVFLFPPKPKDTLMISRTPEVTCVVVDVSHEDPEVKFNWYVDGVEVHNAKTKPREEQYNSTYRVVSVLTVLHQDWLNGKEYKCKVSNKALPAPIEKTISKAKGQPREPQVCTLPPSREEMTKNQVSLWCLVKGFYPSDIAVEWESNGQPENNYKTTPPVLDSDGSFFLYSKLTVDKSRWQQGNVFSCSVMHEALHNHYTQKSLSLSPGK
light 1: B1 light 1 with E27Q, H31E, F32D, W34D, L36Y, V37M, H38N, R54A, W100P, D180K
light 2: B1 light 1
chain 2: B2 chain 2
B4: IL33-158-152 (antibody, human IgG1, kappa, V domains shown)
VH: EVQLVESGGGLVQPGGSLRLSCAASGFTFSSYWMYWVRQAPGKGLEWVAAITPNAGEDYYPESVKGRFTISRDNAKNSLYLQMNSLRAEDTAVYYCARGHYYYTSYSLGYWGQGTLVTVSS
VL: DIQMTQSPSSLSASVGDRVTITCKASQNINKHLDWYQQKPGKAPKLLIYFTNNLQTGVPSRFSGSGSGTDFTLTISSLQPEDFATYYCFQYNQGWTFGGGTKVEIKR
B5: IL33-0726 (antibody, human IgG1, kappa, V domains shown)
VH: B4 VH with H100Q, S105K
VL: B4 VL with K24R, N28P, N30H, K31N, T51G, N52K, T56E, N92K, Q93K, T96S

Columns and labels:
human TSLP (long form) = target: T2, human TSLP (long form) (human, UniProt Q969D9 29-159, Biotinylated on the Avi tag in some assays; glycosylated (Expi293F expression)); experiment: bridging sandwich ELISA: human TSLP coated, Tri-Fab-Fc titrated, IL-13-FLAG added, detected with HRP anti-FLAG (OD450nm)
T2 construct: biotinylated in some assays; also called lfhTSLP; hTSLP
Method: For this method, 25 μL/well of 1 μg/mL recombinant human TSLP (in PBS pH7.2) was coated onto a 384-well clear flat bottom Maxisorp plates (NUNC) overnight at 4° C. and blocked with PBS without Mg²⁺ and Ca²⁺ with 3% BSA. Serially diluted Tri-Fab-Fc variants were added to the plates and incubated for 1 hour at room temperature (RT). After washing away the unbound Tri-Fab-Fc by washing with buffer (PBS without Mg²⁺ and Ca²⁺ with 0.05% tween 20), 25 μL/well of 100 ng/mL IL-13-FLAG (Pfizer Inc) was added to the plates and incubated at RT for one hour. The Tri-Fab-Fc bound to both TSLP and IL-13 was detected by HRP conjugated anti-FLAG secondary antibody (Sigma, Cat #A8592).

recombinant human IL-33 = target: T1, recombinant human IL-33; experiment: cell-based or functional assay

| Binder | EC50 (read off the curve) (human TSLP (long form)) [nM] | IC50 (mean), HEK-Blue IL-33 SEAP (recombinant human IL-33) [nM] |
| --- | --- | --- |
| B1 | ~0.6 | – |
| B2 | ~0.5 | – |
| B3 | ~0.6 | – |
| B4 | – | 0.0428 |
| B5 | – | 0.00827 |
